In this assay the target is T1, myc-tagged SMAD2 (human, UniProt Q15796 1-467, labeled with Cy3).
T1 construct: SMAD2, human; also called SMAD2-myc; source: cloned into pCMV-C-myc vector, purified as previously reported (Li et al., 2013)
As to the kind of experiment: peptide or protein array. The conditions noted are these: both partners purified.

T1 sequence (Q15796 whole entry): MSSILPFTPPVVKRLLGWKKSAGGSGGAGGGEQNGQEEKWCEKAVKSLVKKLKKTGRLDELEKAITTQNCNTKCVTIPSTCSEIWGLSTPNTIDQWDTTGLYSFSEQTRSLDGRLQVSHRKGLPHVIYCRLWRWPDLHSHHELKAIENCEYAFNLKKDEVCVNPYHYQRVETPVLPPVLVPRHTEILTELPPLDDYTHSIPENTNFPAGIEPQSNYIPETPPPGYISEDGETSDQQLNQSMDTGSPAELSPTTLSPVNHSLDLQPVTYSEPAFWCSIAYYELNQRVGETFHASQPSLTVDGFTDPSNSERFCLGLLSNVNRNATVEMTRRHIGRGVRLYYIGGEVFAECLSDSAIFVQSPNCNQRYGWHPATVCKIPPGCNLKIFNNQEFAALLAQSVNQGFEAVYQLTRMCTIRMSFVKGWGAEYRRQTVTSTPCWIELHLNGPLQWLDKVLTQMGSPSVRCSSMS

B1: Rv0577 (Putative glyoxylase Cfp32) on the Mtb proteome microarray (natural protein)
chain: MPKRSEYRQGTPNWVDLQTTDQSAAKKFYTSLFGWGYDDNPVPGGGGVYSMATLNGEAVAAIAPMPPGAPEGMPPIWNTYIAVDDVDAVVDKVVPGGGQVMMPAFDIGDAGRMSFITDPTGAAVGLWQANRHIGATLVNETGTLIWNELLTDKPDLALAFYEAVVGLTHSSMEIAAGQNYRVLKAGDAEVGGCMEPPMPGVPNHWHVYFAVDDADATAAKAAAAGGQVIAEPADIPSVGRFAVLSDPQGAIFSVLKPAPQQ
Turning to B1, the binding result is given as “binds”.

B2: Rv3241c (Ribosome hibernation promotion factor, Hpf) on the Mtb proteome microarray (natural protein)
chain: MSRLAVDSGQVLAEPKSNAEIVFKGRNVEIPDHFRIYVSQKLARLERFDRTIYLFDVELDHERNRRQRKSCQRVEITARGRGPVVRGEACADSFYAALESAVVKLESRLRRGKDRRKVHYGDKTPVSLAEATAVVPAPENGFNTRPAEAHDHDGAVVEREPGRIVRTKEHPAKPMSVDDALYQMELVGHDFFLFYDKDTERPSVVYRRHAYDYGLIRLA
Consider B2, for which the binding result is on record as “binds”.

(Values after paper PMC6448480, “A Two-Way Proteome Microarray Strategy to Identify Novel Mycobacterium tuberculosis-Human Interactors” (Frontiers in Cellular and Infection Microbiology, 2019).)
